Residue numbers refer to the chain shown, from its start. Names may count otherwise.
B1: Id_ii_S2_P3E.2_K3.1_C3.2_[C-2T]_[T-1G]_H3.1_A3.1_F3.1_T3.2_[T9C]_[A10C] (ssRNA)
RNA: UUUGAUUAAUAUGAUAUCGUUCUUUCUUGUGUAUAUACCUUCUUUCUCGAUAUCAUAUUAAUCUUU
B2: Id_ii_S2_P3E.2_K3.1_C3.2_[C-2T]_[T-1G]_H3.1_A3.1_F3.1_T3.2_[A10C] (ssRNA)
RNA: B1 RNA with C38U
B3: Id_ii_S2_P3E.2_K3.1_C3.2_[C-2T]_[T-1G]_H3.1_A3.1_F3.1_T3.2_[A10T] (ssRNA)
RNA: B1 RNA with C38U, C39U
B4: Id_ii_S2_P3E.2_K3.1_C3.2_[C-2T]_[T-1C]_H3.1_A3.1_F3.1_T3.2_[T9C]_[A10G] (ssRNA)
RNA: B1 RNA with G29C, C39G
B5: Id_ii_S2_P3E.2_K3.1_C3.2_[C-2T]_[T-1C]_H3.1_A3.1_F3.1_T3.2_[T9C]_[A10C] (ssRNA)
RNA: B1 RNA with G29C
B6: Id_ii_S2_P3E.2_K3.1_C3.2_[C-2T]_[T-1C]_H3.1_A3.1_F3.1_T3.2_[T9C]_[A10T] (ssRNA)
RNA: B1 RNA with G29C, C39U
B7: Id_ii_S2_P3E.2_K3.1_C3.2_[C-2T]_[T-1C]_H3.1_A3.1_F3.1_T3.2_[T9C] (ssRNA)
RNA: B1 RNA with G29C, C39A
B8: Id_ii_S2_P3E.2_K3.1_C3.2_[C-2T]_[T-1C]_H3.1_A3.1_F3.1_T3.2_[A10T] (ssRNA)
RNA: B1 RNA with G29C, C38U, C39U
B9: Id_ii_S2_P3E.2_K3.1_C3.2_[C-2T]_[T-1A]_H3.1_A3.1_F3.1_T3.2_[T9G]_[A10C] (ssRNA)
RNA: B1 RNA with G29A, C38G
B10: Id_ii_S2_P3E.2_K3.1_C3.2_[C-2T]_[T-1A]_H3.1_A3.1_F3.1_T3.2_[T9G]_[A10T] (ssRNA)
RNA: B1 RNA with G29A, C38G, C39U
B11: Id_ii_S2_P3E.2_K3.1_C3.2_[C-2T]_[T-1A]_H3.1_A3.1_F3.1_T3.2_[T9C]_[A10T] (ssRNA)
RNA: B1 RNA with G29A, C39U
B12: Id_ii_S2_P3E.2_K3.1_C3.2_[C-2T]_[T-1A]_H3.1_A3.1_F3.1_T3.2_[T9A]_[A10C] (ssRNA)
RNA: B1 RNA with G29A, C38A
B13: Id_ii_S2_P3E.2_K3.1_C3.2_[C-2T]_[T-1A]_H3.1_A3.1_F3.1_T3.2_[T9A]_[A10T] (ssRNA)
RNA: B1 RNA with G29A, C38A, C39U
B14: Id_ii_S2_P3E.2_K3.1_C3.2_[C-2T]_[T-1A]_H3.1_A3.1_F3.1_T3.2_[T9A] (ssRNA)
RNA: B1 RNA with G29A, C38A, C39A
B15: Id_ii_S2_P3E.2_K3.1_C3.2_[C-2T]_[T-1A]_H3.1_A3.1_F3.1_T3.2_[A10G] (ssRNA)
RNA: B1 RNA with G29A, C38U, C39G
B16: Id_ii_S2_P3E.2_K3.1_C3.2_[C-2T]_[T-1A]_H3.1_A3.1_F3.1_T3.2_[A10C] (ssRNA)
RNA: B1 RNA with G29A, C38U
B17: Id_ii_S2_P3E.2_K3.1_C3.2_[C-2T]_[T-1A]_H3.1_A3.1_F3.1_T3.2_[A10T] (ssRNA)
RNA: B1 RNA with G29A, C38U, C39U
B18: Id_ii_S2_P3E.2_K3.1_C3.2_[C-2T]_H3.1_A3.1_F3.1_T3.2_[T9G]_[A10T] (ssRNA)
RNA: B1 RNA with G29U, C38G, C39U
B19: Id_ii_S2_P3E.2_K3.1_C3.2_[C-2T]_H3.1_A3.1_F3.1_T3.2_[T9C]_[A10G] (ssRNA)
RNA: B1 RNA with G29U, C39G
B20: Id_ii_S2_P3E.2_K3.1_C3.2_[C-2T]_H3.1_A3.1_F3.1_T3.2_[T9C]_[A10C] (ssRNA)
RNA: B1 RNA with G29U
B21: Id_ii_S2_P3E.2_K3.1_C3.2_[C-2T]_H3.1_A3.1_F3.1_T3.2_[T9C]_[A10T] (ssRNA)
RNA: B1 RNA with G29U, C39U
B22: Id_ii_S2_P3E.2_K3.1_C3.2_[C-2T]_H3.1_A3.1_F3.1_T3.2_[T9A]_[A10C] (ssRNA)
RNA: B1 RNA with G29U, C38A

Molecular target: T1, PUF4 RNA-binding domain (Saccharomyces cerevisiae, UniProt P25339 537-888)
T1 sequence: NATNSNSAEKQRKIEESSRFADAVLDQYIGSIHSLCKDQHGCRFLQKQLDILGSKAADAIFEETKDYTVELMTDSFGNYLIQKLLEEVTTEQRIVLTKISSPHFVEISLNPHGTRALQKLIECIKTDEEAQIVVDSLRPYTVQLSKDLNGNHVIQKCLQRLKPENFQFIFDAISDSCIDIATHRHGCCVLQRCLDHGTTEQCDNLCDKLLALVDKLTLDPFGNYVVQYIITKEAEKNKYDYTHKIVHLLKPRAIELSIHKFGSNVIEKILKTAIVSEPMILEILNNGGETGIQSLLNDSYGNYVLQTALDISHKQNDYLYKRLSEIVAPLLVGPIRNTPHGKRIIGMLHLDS
Experiment: Mg; RNA-MaP; 20 mM Na-HEPES pH 7.4, 30 mM KOAc, 0.75 mM MgCl2, 0.1% Tween-20, 5% glycerol, 0.1 mg/mL BSA, 2 mM DTT; 25 C; 0.0125-409.6 nM protein
Conditions: tags: N-His6-TEV cleaved; C-SNAP kept, Cy3B-labelled; label: tethered on chip by stalled RNA polymerase

| Binder | Kd [nM] |
| --- | --- |
| B1 | 26.5 |
| B2 | 3.49 |
| UCUCUUCGUAUUAGUAUCUCUU (ssRNA) [Ib_S1_P5E.1_K5.1_C5.1_H5.1_[T1C]_A5.1_F5.1_[T8G]_T5.1] | > 2300 |
| B3 | 1.33 |
| B4 | 7.76 |
| B5 | 3.42 |
| B6 | 4.12 |
| B7 | 7.13 |
| B8 | 1.17 |
| B9 | 5.76 |
| B10 | 7.14 |
| B11 | 5.43 |
| B12 | 16.3 |
| UCUCUUUGUAUUAUAAUCUCUU (ssRNA) [Ia_S1_P5E.1_K5.1_C5.1_H5.1_A5.1_F5.1_[T9A]_T5.1] | 2.37 |
| UCUCUUAGUAUUAGUAUCUCUU (ssRNA) [Ib_S1_P5E.1_K5.1_C5.1_H5.1_[T1A]_A5.1_F5.1_[T8G]_T5.1] | > 2300 |
| B13 | 14.1 |
| B14 | 16.9 |
| B15 | 31.5 |
| B16 | 6.09 |
| B17 | 3.9 |
| B18 | 2.77 |
| B19 | 3.7 |
| B20 | 2.82 |
| B21 | 4.94 |
| B22 | 4.14 |
